In FireProtDB (doi:10.1021/bi049320b):

Conditions: Bacillus amyloliquefaciens, pH 8, 25 °C, Urea, Fluorescence, Tris-HCl 30 mM, whole UniProt chain shown

B1: Barstar wild type, P11540 (protein)
chain: MKKAVINGEQIRSISDLHQTLKKELALPEYYGENLDALWDCLTGWVEYPLVLEWRQFEQSKQLTENGAESVLQVFREAKAEGCDITIILS
KCl 0.5 M
  denaturant m value: 1.12 kcal/mol/M
  unfolding free energy: 24.3 kJ/mol
KCl 1.0 M
  denaturant m value: 1.19 kcal/mol/M
  unfolding free energy: 28.9 kJ/mol
  denaturant m value: 1.16 kcal/mol/M
  unfolding free energy: 20.1 kJ/mol
